Source: US20240036027A1 (UNIVERSITY OF MASSACHUSETTS, published 2024)

Experiments:
[1] = target: T1, Streptavidin (unconjugated, EMD Millipore) (UniProt P22629 37-163); assay: single-channel current recording
[2] = target: T1, Streptavidin (unconjugated, EMD …); assay: single-channel current recording, discrete binding events
[3] = target: T1, Streptavidin (unconjugated, EMD …); assay: single-channel current recording, KOff of the lower Ires state taking transient returns to basal conductance as dissociation
[4] = target: T1, Streptavidin (unconjugated, EMD …); assay: single-channel current recording, kOff=1/tauOff
[5] = target: T1, Streptavidin (unconjugated, EMD …); assay: single-channel current recording, kOn=1/(C*tauOn)
[6] = target: T1, Streptavidin (unconjugated, EMD …); assay: single-channel current recording, apparent Kd=kOff/kOn, N=3, n=903
[7] = target: T1, Streptavidin (unconjugated, EMD …); assay: single-channel current recording, calculated from kOff and kOn
[8] = target: T1, Streptavidin (unconjugated, EMD …); assay: single-channel current recording, streptavidin alone, N=12, n=2846
[9] = target: T1, Streptavidin (unconjugated, EMD …); assay: single-channel current recording, streptavidin alone, concentration dependence

T1 sequence (P22629 37-163 limits assumed): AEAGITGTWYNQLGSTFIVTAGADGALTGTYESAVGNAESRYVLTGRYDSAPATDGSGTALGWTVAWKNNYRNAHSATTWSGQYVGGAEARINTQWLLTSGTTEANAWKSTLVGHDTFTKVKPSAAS

B1: OmpG^L3/L6-SA1.1 (designed binder)
chain: MEERNDWHFNIGAMYEIENVEGYGEDMDGLAEPSVYFNAANGPWRIALAYYQEGPVDYSAGKRGTWFDRPELEVHYQFLENDDFSFGLTGGFRNYGYHYVDEPGLEICQNVCYYGGKDTANMQRWKIAPDWDVKLTDDLRFNGWLSMYKFANDLNTTGYADTRVETETGLQYTFNETVALRVNYYLERGFNMDDSRNNGEFSTQEIRAYLPLTLGNHSVTPYTRIGLDRWSNWDWQGLEICQNVCYYGDDIEREGHDFNRVGLFYGYDFQNGLSVSLEYAFEWQDHDEGDSDKFHYAGVGVNYSF
notes: SA1.1 motif in both loops 3 and 6; also called avidity sensor; avidity nanopore sensor
fold change of KOff against OmpG^L6-SA1.1 [1]: ~76 fold
fold change of KOn against OmpG^L6-SA1.1 [1]: ~4.7 fold
koff [2]: 0.0103 s⁻¹
kon [2]: 326000 M⁻¹ s⁻¹
koff [3]: 0.701 s⁻¹

B2: OmpG^L6-SA1.1 (designed binder)
chain: MEERNDWHFNIGAMYEIENVEGYGEDMDGLAEPSVYFNAANGPWRIALAYYQEGPVDYSAGKRGTWFDRPELEVHYQFLENDDFSFGLTGGFRNYGYHYVDEPGKDTANMQRWKIAPDWDVKLTDDLRFNGWLSMYKFANDLNTTGYADTRVETETGLQYTFNETVALRVNYYLERGFNMDDSRNNGEFSTQEIRAYLPLTLGNHSVTPYTRIGLDRWSNWDWQGLEICQNVCYYGDDIEREGHDFNRVGLFYGYDFQNGLSVSLEYAFEWQDHDEGDSDKFHYAGVGVNYSF
notes: also called Loop 6 SA1.1
koff [4]: 0.783 s⁻¹
kon [5]: 69100 M⁻¹ s⁻¹
Kd [6]: 8.83 µM

B3: OmpG^L3-FLAG/L6-SA1.1 (designed binder)
chain: MEERNDWHFNIGAMYEIENVEGYGEDMDGLAEPSVYFNAANGPWRIALAYYQEGPVDYSAGKRGTWFDRPELEVHYQFLENDDFSFGLTGGFRNYGYHYVDEPGDYKDDDDKGGKDTANMQRWKIAPDWDVKLTDDLRFNGWLSMYKFANDLNTTGYADTRVETETGLQYTFNETVALRVNYYLERGFNMDDSRNNGEFSTQEIRAYLPLTLGNHSVTPYTRIGLDRWSNWDWQGLEICQNVCYYGDDIEREGHDFNRVGLFYGYDFQNGLSVSLEYAFEWQDHDEGDSDKFHYAGVGVNYSF
notes: Possible glycines beside SA1.1 (primers) not built in; also called multiplex sensor; SA1.1 multiplex sensor
Kd [7]: 7.54 µM
koff [8]: 0.552 s⁻¹
kon [9]: 73200 M⁻¹ s⁻¹
